In patent US6545128 (BURNHAM INSTITUTE, dated 2003):

Target: T1, 35S-labeled in vitro translated HA-tagged BI-2 (human, UniProt Q9NZS9 1-450, 35S-labeled methionine (in vitro translation))
T1 construct: Made by TNT rabbit reticulocyte in vitro transcription/translation; also called HA-BI-2; not shown: three copies of the HA tag at the N-terminus (vector pSN503)
T1 sequence: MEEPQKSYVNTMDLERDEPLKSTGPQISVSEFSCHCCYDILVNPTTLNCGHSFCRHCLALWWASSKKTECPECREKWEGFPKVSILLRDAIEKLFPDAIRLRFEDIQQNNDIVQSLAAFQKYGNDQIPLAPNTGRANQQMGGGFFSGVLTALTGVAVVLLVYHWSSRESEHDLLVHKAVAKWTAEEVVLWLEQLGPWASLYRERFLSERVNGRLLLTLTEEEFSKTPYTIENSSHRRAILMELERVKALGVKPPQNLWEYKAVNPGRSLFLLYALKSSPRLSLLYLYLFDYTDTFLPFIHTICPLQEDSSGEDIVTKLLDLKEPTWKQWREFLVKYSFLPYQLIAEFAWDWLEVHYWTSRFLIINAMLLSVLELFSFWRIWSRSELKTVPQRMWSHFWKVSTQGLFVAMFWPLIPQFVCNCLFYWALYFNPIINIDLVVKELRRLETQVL
Assay: GST pull-down: about 5 ug GST fusion protein on glutathione SEPHAROSE, 35S-labeled in vitro translated HA-BI-2, SDS-PAGE and autoradiography
Method: Approximately 5 µg of the following fusion proteins, including GST control, GST-CD40 cytosolic domain, GST-Bcl-2, GST-Bax or GST-BI-2, were immobilized on glutathione SEPHAROSE, then 8 µl of ^35S-labeled in vitro translated HA-tagged BI-2 in binding buffer was added. After incubation at 4° C. for 2 hr, the beads were washed 5× with binding buffer and the associated proteins were eluted in Laemli sample buffer and analyzed by SDS-PAGE (10% gel). As a control, ^35S-labeled BI-2 was loaded directly into the gel, using one-quarter the amount employed for the binding experiments. Following electrophoresis, the gels were dried and exposed to X-ray film.

binding result: no binding
B1: GST-CD40 cytosolic domain (other, UniProt P25942 216-277, looked up)
chain: KKVAKKPTNKAPHPKQEPQEINFPDDLPGSNTAAPVQETLHGCQPVTQEDGKESRISVQERQ
notes: domain: cytosolic domain; Unrelated control protein; not shown: glutathione S-transferase (GST) fusion partner
